Measured values from publication PMC12642504 (bioRxiv, 2025).

Target: BG505 MD39.3 SOSIP trimer (soluble Env trimer, SPR analyte) (HIV-1 group M subtype A, isolate BG505, stabilised)
Assay: SPR

B1: V2-Int1 antibody (PCT64-18D), human IgG1 (antibody, V domains shown)
VH: EVQLVESGGGLVKPGGSLRLSCVGSGFAFSDAWMTWVRQAPGKGLEWVGHMRPTPEGGAKDYAAPVKGRFTVSRDDSKNTLYLQMNSLKIEDTAVYYCMTGVETGDFWSDYYAQYYDPYLIDVWGKGTTVTVSS
VL: EIVLTQSPGTLSLSPGDRATLSCRATQSVDSNYLAWYQQKPGQAPRLLIYGTSSRAAGIPDRFSGSGSGTDFTLTIDRLEPEDFAVYYCRQYGTSFTFGPGTKVDIK
Work on B1 yielded a Kd of 770 nM.
